The data set is described as follows: soluble fraction after stress (log2 fold change); higher = more stays soluble; pooled small domains, quantitative proteomics. The settings on record: stress: 50 degC. In outline: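 Custom libraries of small protein domains were pooled and measured in a high-throughput format, with quantitative proteomics as the read-out. Each library was stressed at 50°C. The value is the log2 fold change in the amount of each protein that stays soluble after stress, used as a measure of aggregation propensity; higher values mean more of the protein stays soluble.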
Take “HMRTPLTGREEQVATLIGRGMTNSEIAESLSVDESTVKTHIGSILRKVHLRDRLQVALWFHGLPIE”: the “soluble fraction (log2)” value is -0.495. The value for “HMRTTYKTRLETLLAGPMSAGDRRFASSLLDFYNRKNRLTPGRARFVAQLEDRYSAEALAARQG” was -0.961; that for “HMRTVEQFQIRKIYAISNALGISDSRADEDELHVLVSGLTGKDSIKELTYREASVVIERLEELQ” was -2.54; that for “HMRVDDITDTILNVLKEQGGFISVTDKSSPETINKLFGVSKKTYKKAIGAIYRKKLIIIEDDGIRLNS” was -1.84. The result for “HMRVDRSALDSIPGVGPGRKRTLLHHFGSARAVEASGLADLESIRGISKALARKIYDFFHPE” reads -1.38; that for “HMRVELVVVPELRQQLLPEARELANSAGLQLRVRGQSPADETRTIVVTQSPAAGTRVAARSIVLVE”, -0.539; that for “HMRVPTVIGMDEGTAKATLANASLKSNIVYESDETKENGKVLSQGIEQNKEVKAGTTVEIKVNKIE”, -0.0202.

Regarding “HMRVTEVSYDKFLDMLSGGQVTVVELQENERELYFKAADENGAERIYSTGVFPDADLQKRLSESGVTF”, the “soluble fraction (log2)” value is -0.025. The value for “HMRYLHTMIRVSDLEESLNFFKLLDIHEVSRKENEQARFTLVFLSATGDEKLVENAKSPLIELTFN” was -0.0584; that for “HMRYLMPDLVNRRYEPVRSLLEARGIRFGNVIFEPYEGLPPGIVLRQDPPAGHPLPRRRTVSLVVSGPGGR” was -1.88. For the sequence “HMRYQIAEARKLRDITQAELAEKMGTTQQTIQRYETNQVNIRMDKMIEMSEILNVSLAYLLGMSSSPEL”, the “soluble fraction (log2)” value is -0.901. The result for “HMRYVVQVATFSSKNNAIRAADDLAGFVVVSNGYYRVRTGPYADRGEANAALAKARKAGYTDAFVDTS” reads -0.798; that for “HMSAAYVYVTGTRVNQRDGPSTFDRVMGVLVEGTRVQLLRDQGQWAQIRSDLGTGWLSSGFLSRNG”, -1.87.

Regarding “HMSADKAEAAEASLKSFNLRLQAAAMEAGKTFAPVTADQYAEYKAAWGTYIRKGIEGLSESEKKTINVG”, the “soluble fraction (log2)” value is -0.03. As to “HMSAETREELVGREGVSLTDLRPSGFALFGQEKIDVVSESEFIEEGTSVRIVSVEGSRHIVRAKR”, the “soluble fraction (log2)” value was 0.0998. In the case of “HMSAISSARKEKIIEYLTDHGSARSSEIAEYVDLRPSRVRDYLGELVREDIVVAEGANRNRTYRLK”, the “soluble fraction (log2)” value stood at 0.0293. Turning to “HMSAPGYRAVYPGMLESERQTAYELLSSSGFDVKINTSSGELEVTTDRYHEARMVMASQNIPK”, the “soluble fraction (log2)” value worked out at 0.0432.

As to “HMSAPVFRITPAGVVVNGLKRSDILTLTRIDGAMNTLPHNAGEVLVSTEGLAKGVYVITAGGKSLKFLV”, the “soluble fraction (log2)” value is -1.36. Take “HMSAQPMEYSRFYSDVTQGRVAEVEIEGREINGRLSTGERFKTFSPETDNKALIGHLLDNGVVIEGKPP”: the “soluble fraction (log2)” value stood at 0.234. For the sequence “HMSASEKLFEARKNLNIVNVLGKNPVDRYDIVKILKHGDHYHIYDSKGNEGITYTNPKSLYPEAEFGEYQG”, the “soluble fraction (log2)” value turned out to be 0.12.

With “HMSASTGTVSYKSGATTVWNSPSWHQVKRYVTFGDTVQLLGKTVDQNGATWYKVGDNQWIPELYLNVAG”, the “soluble fraction (log2)” value is -0.508. For the sequence “HMSATEPVHFDPNKSPEDMTVEELQAGILAKMANNGPVSDQMKKTVNENIWHDSLVNWLKSF”, the “soluble fraction (log2)” value is 0.0373. In the case of “HMSATPQRMSIINELDSARKNLSAYDLRDSLKDKGHSFNISTIYRVLSFWIDVGVVHKMDSSNTYL”, the “soluble fraction (log2)” value turned out to be 0.147. On to “HMSATVLVHVLGEVRKPGVVSLPEGSRVQDAITAAGGLTSRAKPGDLNLAARVSDGAQLVIGRSGSQVRTT”, for which the “soluble fraction (log2)” value was -0.0286. With “HMSAVVAPLPGLIQNILVKVGDTVHAGQHVLTMEAMKMENEIQTNRDGIIKDIKVRIGDSVNEGDTLIIL”, the “soluble fraction (log2)” value is -0.0224. For “HMSDAGAIEPTIKEILASNPKAVEEYLAGNIKNINALIGQSMKALHGKADPQTVRNLLAKLLDEM”, the “soluble fraction (log2)” value was -0.219. The result for “HMSDAIQLEQKIGLEAIEWYLALSEQTDDKLLYQQWQSWLAADPQHQLAWSRIEQVNHGLNTL” reads -0.706.

For “HMSDAVQLGLRLRAARERRGLSQQAVADALGLPRTAVTNMESGNRAVSTLELTKLAALYGQSTAFFLSP”, the “soluble fraction (log2)” value is -0.1.

The values are drawn from the domain aggregation screens of Martell et al. (2025).
